Measurements as given in US20220273713A1, “METHOD OF INHIBITING OR ACTIVATING GAMMA DELTA T CELLS” (The University of Melbourne, priority 2019, published 2022).
Several values for one entry are separate records, joined by “and”; a condition that tells them apart may be missing. Equal entries are not always repeated. Entries after “also recorded” stand apart in the source; their conditions may differ.

How the values were obtained:
Assay type in all cases: cell-based, human
[1] = system: Vγ9Vδ2 cells; assay: Luminex (Vγ9Vδ2): cytokine/chemokine secretion by pre-expanded Vγ9Vδ2 cells; conditions: for IL-4 / IL-8 / GMCSF / ICAM-1 / IFNγ / IL-13 / IL-17A / MIP-1a / MIP-1b / TNFα / sE-selectin / sP-Selectin: 16 hrs, antibodies 10 μg/ml, Zoledronic acid 4 μM, HMBPP 0.5 ng/ml, duplicates, 0 set to 0.1;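 for all read-outs here: Vγ9Vδ2 cells purified from PBMC, activated 48 h with CD3 and CD28 plus IL-2, expanded 14 days in IL-2, then thawed and rested overnight in IL-2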
Description: Briefly, Vγ9Vδ2 cells were isolated from 1 healthy donor (Red Cross Australia) and 1 cancer patient derived PBMC using TCRγ/δ+ T Cell Isolation Kit (Miltenyi). Cells were stimulated for 48 hours in TCRPMI supplemented with 100u/ml IL-2, CD3 (10 μg/ml) and CD28 (1 μg/ml). Cells were washed and grown for 14 days in TCRPMI supplemented with 100u/ml IL-2 at 37 degrees C. and 5% CO2, and then frozen down. […] Vγ9Vδ2 were defrosted and rested overnight in TCRPMI supplemented with 50u/ml IL-2 at 37 degrees C. and 5% CO2. […] All samples were run with appropriate controls and standards.

[2] = system: γδ T cells; assay: Identification of BTN2A1 agonistic antibodies: CD25 and interferon γ of expanded γδ T cells; conditions: 10 μg/ml antibody overnight, vs isotype control BM4
Description: In some experiments γδ T cells were enriched by MACS using PE-Cy7-conjugated anti-γδTCR followed by anti-phycoerythrin-mediated magnetic bead purification (Miltenyi Biotec). After enrichment CD3+Vδ2+ γδ T cells were further purified by sorting using an Aria III (BD). Enriched γδ T cells were stimulated in vitro for 48 h with plate-bound anti-CD3ε (OKT3, 10 ug/ml, Bio-X-Cell), soluble anti-CD28 (CD28.2, 1 ug/ml, BD Pharmingen), phytohemagglutinin (0.5 μg/ml, Sigma), IL-15 (50 ng/ml), and recombinant human IL-2 (100 U/ml, PeproTech), followed by maintenance with IL-2 and IL-15 for 14-21 d. Cells were cultured in complete medium consisting of a 50:50 (v/v) mixture of RPMI-1640 and AIM-V (Invitrogen) supplemented with 10% (v/v) FCS (JRH Biosciences), penicillin (100 U/ml), streptomycin (100 μg/ml), Glutamax (2 mM), sodium pyruvate (1 mM), nonessential amino acids (0.1 mM), and HEPES buffer (15 mM), pH 7.2-7.5 (all from Invitrogen Life Technologies), plus 50 μM 2-mercaptoethanol (Sigma-Aldrich).
The inventors screened the panel of antibodies specific for BTN2A1, as described above, to identify those able to agonise BTN2A1. The inventors assessed the ability of anti-BTN2A1 antibodies to activate γδ T cells. The inventors assessed upregulation of CD25 on the surface of previously expanded γδ T cells following culturing the cells with 10 μg/ml anti-BTN2A1 antibodies or isotype control antibody (BM4) overnight.
The inventors additionally measured levels of interferon γ secreted by γδ T cells following culture in the presence of 10 μg/ml anti-BTN2A1 antibodies or isotype control antibody (BM4) overnight. Interferon γ secretion is another indicator of TCR-dependent activation.

[3] = system: LM-MEL-62 and LM-MEL-75 melanoma cells; assay: Tumor killing/inhibition assay: γδ T cells with melanoma cells 2:1, MTS and CD25; conditions: γδ T cells : melanoma cells 2:1, three days, antibody 10 ug/ml
Description: In the following experiments, γδ T cells were enriched by MACS using PE-Cy7-conjugated anti-γδTCR followed by anti-phycoerythrin-mediated magnetic bead purification (Miltenyi Biotec). After enrichment CD3^+ Vδ2^+γδ T cells were further purified by sorting using an Aria III (BD). […] LM-MEL-62 and LM-MEL-75 melanoma cells were plated out 1×10^4 per well in a 96 well flat-bottom plate In RPMI1640 media supplemented with 10% FBS and left to adhere overnight. […] All conditions were repeated in triplicate. Cells were incubated at 37 degrees and on day 3 Vd2+ cells were acquired by flow cytometry. Live cells were gated and activation determined by analysis of CD25 expression. Melanoma cell viability was determined by MTS assay. MTS reagent was added to RPMI media at a 1:5 ratio and 100 ul added per well. Cells were incubated at 37 degrees for 30 minutes and the plate was read on a Spectrostar nano plate reader at 490 nm. […] Cultures were performed with γδ T cells and melanoma cells (LM-MEL-75 or LM-MEL-62) in a 2:1 ratio.

[4] = system: LM-MEL-62 melanoma cells; assay: In vitro killing assays (antibody titration, E:T titration), MTS
Description: Vγ9Vδ2 cells were isolated from either healthy donor (Red Cross Australia) or cancer patient derived PBMC using TCRγ/δ+ T Cell Isolation Kit (Miltenyi). Patients provided informed consent and research was approved under HREC 14/425. […] For all assays LM-MEL-62 melanoma cells were plated out at 10,000 cells/well in 100 μl RF10 media in 96-well flat bottomed plates and left to adhere overnight at 37 degrees C. and 5% CO2. […] Cells were incubated at 37 degrees C. and 5% CO2. At day 3 Vγ9Vδ2 cells were washed out and 100 μl MTS reagent was added to wells for 1 hour as per manufacturers protocol (Promega, USA). Plates were subsequently read at 490 nm using a Spectrostar Nano microplate reader (BMG Labtech) to determine cell viability corrected for background absorbance.

[5] = system: Vγ9Vδ2 cells; assay: Flow cytometry: CD25 on Vγ9Vδ2 cells without phosphoantigen or APCs; conditions: no addition of APCs or phosphoantigen; listed as 259
From the text: Vγ9Vδ2 cells were stained for CD3, Vδ2, CD25 and live dead viability dye as previously described and analysed on a Canto flow cytometer (BD). Cells were gated on lymphocytes, single cells, live cells, CD3+ Vδ2+, and activation determined based on CD25 expression.

[6] = γδT cells from a healthy donor, listed as 259
[7] = γδT cells from patient 1 (melanoma patient), listed as 259

B1: antibody 259: agonistic anti-BTN2A1 antibody; VL SEQ ID NO: 156, VH SEQ ID NO: 160 (antibody, V domains shown)
VH: EVQLLESGGGLVQPGGSLRLSCAASGFTFSSYAMQWVRQAPGKGLEWVSRIGPSGGGTMYADSVKGRFTISRDNSKNTLYLQMNSLRAEDMAVYYCARDLGGLSVLFDYWGQGTLVTVSS
VL: QSELTQPPSASETPGQRVTISCSGSSSNIGSNTVSWFQQLPGSAPRLLIYNDHRRPSGVPDRFSGSKSGTSASLVISGLQSQDEADYYCSAWDDSLNGVVFGGGTKLTVL
modifications: amino acid sequence of the VH of antibody 259; amino acid sequence of the VL of antibody 259
cytokine/chemokine secretion, in words ([1]; across both donors): substantial increase in multiple analytes
cytokine/chemokine secretion, in words ([1]; healthy donor derived Vγ9Vδ2 cells, vs isotype (BM4)): no IL-4 was detected
IL-4 ([1]; γδT cells from a healthy donor): 0.1 pg/mL
IL-8 ([1]; γδT cells from a healthy donor): 0.1 pg/mL
GMCSF [1, 6]: 578.23 pg/mL and 608.66 pg/mL
ICAM-1 [1, 6]: 227.66 pg/mL and 226.25 pg/mL
IFNγ [1, 6]: 359.53 pg/mL and 412.2 pg/mL
IL-13 [1, 6]: 23.33 pg/mL and 31.31 pg/mL
IL-17A [1, 6]: 3.7 pg/mL and 4.17 pg/mL
MIP-1a [1, 6]: 301.77 pg/mL and 286.07 pg/mL
MIP-1b [1, 6]: 9757.6 pg/mL and 9064.66 pg/mL
TNFα [1, 6]: 451.81 pg/mL and 481.49 pg/mL
sE-selectin [1, 6]: 259.93 pg/mL and 300.24 pg/mL
sP-Selectin [1, 6]: 2291.35 pg/mL and 2223.07 pg/mL
GMCSF [1, 7]: 1135.87 pg/mL and 1151.41 pg/mL
ICAM-1 [1, 7]: 798.07 pg/mL and 755.13 pg/mL
IFNγ [1, 7]: 598.1 pg/mL and 740.33 pg/mL
IL-4 [1, 7]: 490.79 pg/mL and 389.47 pg/mL
IL-8 [1, 7]: 0.93 pg/mL and 1.06 pg/mL
IL-13 [1, 7]: 399.99 pg/mL and 461.27 pg/mL
IL-17A [1, 7]: 5.86 pg/mL and 6.55 pg/mL
MIP-1a [1, 7]: 317.76 pg/mL and 361.32 pg/mL
MIP-1b [1, 7]: 6921.27 pg/mL and 8238.42 pg/mL
TNFα [1, 7]: 1130.35 pg/mL and 1137.89 pg/mL
sE-selectin [1, 7]: 311.65 pg/mL and 368.09 pg/mL
sP-Selectin [1, 7]: 2170.46 pg/mL and 2424.08 pg/mL
level of secreted interferon γ [2]: increase the level of secreted interferon γ
percentage of γδ T cells expressing CD25 [2]: increase the percentage of γδ T cells expressing CD25
CD25 level of expression on γδ T cells in co-culture [3]: upregulated
tumour cell killing compared to treatment with zoledronic acid ([4]; E:T titration 2:1 to 1:16, 10 ug/ml antibody 259 or 4 uM zoledronate, both donors): killing occurred to a lesser extent
induction of LM-MEL-62 cell killing, 259 compared with 253 ([4]; LM-MEL-62 with Vγ9Vδ2 cells 1:1, antibody titration, listed as 259): more potent inducer of cell killing than antibody 253; also recorded: lower viability rates of LM-MEL-62 cells when compared to antibody 253
activation of Vγ9Vδ2 cells by CD25 upregulation [5]: higher activation potential; also recorded: can mimic phosphoantigen mediated activation to various degrees
